The target in assay [1] is T1, human GHRH receptor (human pituitary membrane homogenates) (human) (UniProt Q02643).
T1 sequence (looked up): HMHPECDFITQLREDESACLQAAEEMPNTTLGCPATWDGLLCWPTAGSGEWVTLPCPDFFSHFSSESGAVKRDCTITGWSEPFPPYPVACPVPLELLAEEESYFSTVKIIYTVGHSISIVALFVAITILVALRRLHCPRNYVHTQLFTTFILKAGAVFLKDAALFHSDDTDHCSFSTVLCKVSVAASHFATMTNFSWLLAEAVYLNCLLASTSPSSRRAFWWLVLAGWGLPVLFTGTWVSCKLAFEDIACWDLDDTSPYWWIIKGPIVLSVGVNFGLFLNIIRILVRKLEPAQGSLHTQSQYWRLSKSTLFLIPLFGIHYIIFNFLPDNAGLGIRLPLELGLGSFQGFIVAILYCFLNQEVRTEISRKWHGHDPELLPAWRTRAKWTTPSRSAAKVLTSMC
The experiment in a line: radioligand competition vs [His1,125I-Tyr10,Nle27]hGHRH(1-32)NH2 (0.2 nM), human pituitary membranes. On the technique in general: Loss of bound radioactivity is the signal in a displacement assay; it reports binding, not function.

Assay [2] deals with T1, human GHRH receptor (human pituitary membrane homogenates) (human). Briefly: radioligand competition vs 125I-JV-1-42 (0.2 nM), human pituitary membranes.
The target is the same in assay [3]. The assay is described as above. The source holds these as a separate data set.

JI-34 (peptide): the Relative affinity (Binding potency) vs GHRH in assay [1] amounted to 4.32 fold.
Regarding “P-27406 [N-Me-Tyr^1, Gln^8, Orn^12, Abu^15, Orn^21, Nle^27, Asp^28]hGHRH(1-29)NH-CH3 (peptide)”, in assay [2], the Relative affinity (Binding potency) vs JI-38 was determined as 14.5 fold.
In the case of JI-36 (peptide), in assay [1], the Relative affinity (Binding potency) vs GHRH amounted to 3.25 fold.
In assay [1], JI-38 (peptide) yielded a Relative affinity (Binding potency) vs GHRH of 3.03 fold and a Relative affinity (Binding potency) vs JI-38 of 1 fold. In assay [3], this substance registered a Relative affinity (Binding potency) vs GHRH of 2.4 fold and a Relative affinity (Binding potency) vs JI-38 of 1 fold.
Take “P-20356 [N-Me-Tyr^1, Gln^8, Orn^12, Abu^15, Orn^21, Nle^27, Asp^28, Agm^29]hGHRH(1-29)NH2 (peptide)”: the Relative affinity (Binding potency) vs JI-38 in assay [2] was 16.1 fold. In assay [3], this substance showed a Relative affinity (Binding potency) vs GHRH of 406 fold and a Relative affinity (Binding potency) vs JI-38 of 171 fold.
Take “P-27407 [Dat^1, Gln^8, Orn^12, Abu^15, Orn^21, Nle^27, Asp^28]hGHRH(1-29)NH-CH3 (peptide)”: the Relative affinity (Binding potency) vs JI-38 in assay [2] is 1.45 fold.

The values above are taken from patent US20140193378A1 (UNIVERSITY OF MIAMI, published 2014).
